Measurements as given in patent US10251952B2, “Humanized anti-tau(pS422) antibody brain shuttles and use thereof” (Hoffmann-La Roche Inc., priority 2014, dated 2019).
Substitutions are numbered along the chain they refer to. Where two headings read alike, the source gives them in different places. One block for each molecule: values may come before it. Square brackets hold non-standard residues; d marks the D form. Ends that are not written are not given here. NMeR = CN[C@@H](CCCNC(=N)N)C(=O)O; Pqa = not defined here

How the values were obtained:
[1] = target: T1, NPY5R (Homo sapiens, UniProt Q15761); experiment: effect on the Y2Receptor family
T1 sequence (Q15761 1-445): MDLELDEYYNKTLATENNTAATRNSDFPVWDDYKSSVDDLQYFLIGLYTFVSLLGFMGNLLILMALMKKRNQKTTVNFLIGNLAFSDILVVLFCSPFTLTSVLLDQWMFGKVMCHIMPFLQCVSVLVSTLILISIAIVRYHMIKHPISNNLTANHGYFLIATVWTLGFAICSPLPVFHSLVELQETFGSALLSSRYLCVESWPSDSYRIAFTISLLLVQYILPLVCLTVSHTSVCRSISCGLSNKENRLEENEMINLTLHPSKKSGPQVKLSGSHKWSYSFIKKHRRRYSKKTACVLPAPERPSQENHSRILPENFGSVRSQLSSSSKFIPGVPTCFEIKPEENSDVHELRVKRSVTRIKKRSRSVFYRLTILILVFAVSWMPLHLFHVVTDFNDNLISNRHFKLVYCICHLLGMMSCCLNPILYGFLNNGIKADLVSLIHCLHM

[2] = target: anti-HeliCar motif amino acid sequence antibody; experiment: binding of PYY peptides to anti-HeliCar motif antibody
[3] = target: NPY4R (Homo sapiens, UniProt P50391); experiment: effect on the Y2Receptor family
NPY4R, sequence (P50391 whole entry, species assumed): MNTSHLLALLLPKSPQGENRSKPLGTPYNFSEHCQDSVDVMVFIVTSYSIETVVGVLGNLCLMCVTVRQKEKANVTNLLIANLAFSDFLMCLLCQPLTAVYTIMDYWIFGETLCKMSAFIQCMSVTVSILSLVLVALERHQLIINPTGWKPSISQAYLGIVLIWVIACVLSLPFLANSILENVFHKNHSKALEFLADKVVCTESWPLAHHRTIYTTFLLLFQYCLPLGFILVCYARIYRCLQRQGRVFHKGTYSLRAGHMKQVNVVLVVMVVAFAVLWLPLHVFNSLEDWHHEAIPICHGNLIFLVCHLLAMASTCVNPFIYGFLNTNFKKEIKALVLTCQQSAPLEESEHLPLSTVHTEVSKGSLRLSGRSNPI

[4] = target: T2, NPY2R (Homo sapiens, UniProt P49146); experiment: effect on the Y2Receptor family
T2 sequence (P49146 1-381): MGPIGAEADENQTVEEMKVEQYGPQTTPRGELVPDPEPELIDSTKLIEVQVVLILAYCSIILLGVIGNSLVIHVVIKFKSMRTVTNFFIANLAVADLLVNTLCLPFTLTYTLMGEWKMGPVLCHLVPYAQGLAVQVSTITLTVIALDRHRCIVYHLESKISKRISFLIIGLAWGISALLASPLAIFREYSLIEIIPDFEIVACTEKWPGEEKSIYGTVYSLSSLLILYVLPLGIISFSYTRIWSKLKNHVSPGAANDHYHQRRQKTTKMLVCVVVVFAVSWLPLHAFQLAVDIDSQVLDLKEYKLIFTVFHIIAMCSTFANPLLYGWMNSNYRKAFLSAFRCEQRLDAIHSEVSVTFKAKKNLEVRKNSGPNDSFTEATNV

[5] = target: T3, NPY1R (Homo sapiens, UniProt P25929); experiment: effect on the Y2Receptor family
T3 sequence (P25929 1-384): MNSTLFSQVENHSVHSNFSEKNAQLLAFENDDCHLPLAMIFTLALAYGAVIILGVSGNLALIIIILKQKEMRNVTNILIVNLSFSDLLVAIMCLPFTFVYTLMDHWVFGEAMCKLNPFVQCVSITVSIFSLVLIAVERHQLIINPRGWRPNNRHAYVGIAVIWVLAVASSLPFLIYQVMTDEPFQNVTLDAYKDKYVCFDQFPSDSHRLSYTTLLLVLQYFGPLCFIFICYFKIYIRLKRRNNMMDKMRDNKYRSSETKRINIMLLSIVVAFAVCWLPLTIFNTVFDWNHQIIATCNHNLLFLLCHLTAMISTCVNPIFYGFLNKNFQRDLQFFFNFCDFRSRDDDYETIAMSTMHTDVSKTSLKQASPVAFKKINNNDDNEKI

[6] = target: human tau phosphorylated at S422 (Homo sapiens, UniProt P10636, S739X); experiment: Western Blot selectivity of humanized VH/VL combinations; assay type: binding; conditions: summary grading 1 to 4, key not given
Source text: FIG. 5 is a Western Blot showing the selectivity of selected humanized VH/VL combinations; (1)=VH00/VL00, (2)=VH32/VL21, (3)=VH20/VL22, (4)=VH32/VL22, (5)=VH33/VL22.
The sensitivity of selected humanized VH/VL combinations to the human tau mutant S422A can be seen from the Western Blots shown in FIG. 5. All humanized variants selectively bind to human tau phosphorylated at S422.

[7] = target: T4, human tau(pS422) (Homo sapiens, UniProt P10636, S739X); experiment: IHC grading in summary of biological properties; conditions: key not given
Source text: The following table summarizes the biological properties of selected humanized VH/VL combinations.

[8] = target: tau(pS422) fragment SEQ ID NO: 03 (Homo sapiens, UniProt P10636, S739X); experiment: ELISA binding specificity of VH/VL combinations
Description: (§1) In the following Table the binding specificity for different VH/VL combinations are shown (EC50 values in [ng/ml]).
(§2) Non-biotinylated peptide/protein/aggregate was added to non-coated Maxisorb plates, biotinylated peptide/protein/aggregate in PBS was added to streptavidin-coated Maxisorb plates, and plates were incubated over-night. The supernatant was discarded and the wells washed three times with 90 μl wash buffer (lx PBS/0.1% Tween 20). Remaining reactive spots were blocked with blocking buffer (lx PBS/2% BSA (Bovine Serum Albumin Fraction V, fatty acid free, Roche, Cat. No.: 10735078001)/0.05% Tween 20) by incubating for one hour. The supernatant was discarded and the wells washed three times with 90 μl wash buffer. Samples and control antibody were prepared in 12 dilutions (1:2) in ELISA buffer (lx PBS/0.5% BSA (Bovine Serum Albumin Fraction V, fatty acid free, Roche, Cat. No.: 10735078001)/0.05% Tween 20) with a start concentration of 500 ng/ml. The incubation time was 60 minutes at room temperature on a shaker. The supernatant was discarded and the wells washed three times with 90 μl wash buffer. Solutions of secondary antibody were prepared in ELISA buffer. A total of 25 μl antibody-mix was transferred to all wells of the assay plate and the plate was thereafter incubated on shaker for 60 minutes at room temperature. The supernatant was discarded and the wells were washed three times with 90 μl wash buffer. 25 μl of ABTS solution was added to all wells. The absorbance was read at 405 nm-492 nm.

[9] = target: T5, S422A tau mutant S422A SEQ ID NO: 01 (Homo sapiens, UniProt P10636, S739A); experiment: ELISA binding specificity of VH/VL combinations
T5 construct: (A)=full length human tau S422A mutant
T5 sequence (P10636 1-441 isoform P10636-8 S422A): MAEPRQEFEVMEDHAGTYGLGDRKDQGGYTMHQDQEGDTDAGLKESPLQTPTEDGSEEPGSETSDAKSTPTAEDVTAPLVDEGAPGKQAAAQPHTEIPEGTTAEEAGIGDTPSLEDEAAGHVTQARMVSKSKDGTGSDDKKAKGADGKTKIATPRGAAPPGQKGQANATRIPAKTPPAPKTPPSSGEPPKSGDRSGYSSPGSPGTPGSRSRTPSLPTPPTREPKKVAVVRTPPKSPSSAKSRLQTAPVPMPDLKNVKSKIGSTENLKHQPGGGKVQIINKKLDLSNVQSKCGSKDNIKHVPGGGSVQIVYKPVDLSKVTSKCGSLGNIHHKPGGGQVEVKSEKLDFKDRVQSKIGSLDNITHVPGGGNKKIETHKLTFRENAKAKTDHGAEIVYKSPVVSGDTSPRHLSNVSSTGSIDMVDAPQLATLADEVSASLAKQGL
Description: as §1, §2

[10] = target: T6, tau peptide residues 416 to 430 of SEQ ID NO: 01 (Homo sapiens, UniProt P10636); experiment: ELISA binding specificity of VH/VL combinations
T6 construct: 416 to 430
Description: as §1, §2

[11] = target: full length tau(pS422) SEQ ID NO: 02 (Homo sapiens, UniProt P10636, S739X); experiment: ELISA binding specificity of VH/VL combinations
Description: as §1, §2

[12] = target: tau(pS422) aggregates (Homo sapiens, UniProt P10636, S739X); experiment: ELISA binding specificity of VH/VL combinations
Description: as §1, §2

[13] = target: T4, human tau(pS422); experiment: BIAcore kinetic screening and kinetic rates of humanized VH/VL combinations; assay type: binding; conditions: for MR: molar ratio; for BIAcore: summary grading 1 to 4, key not given
Method in brief: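 Antibodies (44–70 nM) were captured on an anti-human-Fc CM5 surface in HBS-EP, pH 7.4. Phospho-tau, non-phospho-tau and T422S mutant analytes were injected at 300 nM for 3 min, with 5 min dissociation. Outputs were binding/stability late, Langmuir kd, half-life and molar ratio; kinetic rates came from 1.2–300 nM series at 25 and 37 °C, Langmuir 1:1 global fit.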

Molecule: IKPEAPGEDASPEAHLANEVARLHYLNLVTRQRY-NH2 [PYY_HeliCar]
- NPY5R [1]: inactive
- Kd [2]: 12 nM
- NPY4R [3]: inactive
- NPY2R [4]: 6.38 nM

Molecule: Ac-Ile-Lys-Pqa-Arg-His-Tyr-Leu-Asn-Trp-Val-Thr-Arg-Gln-(NMe)-Arg-Try-NH2 * 4 HOAc (Ac-IK[Pqa]RHYLNWVTRQ[NMeR]Y-NH2; reading uncertain; also: salt: 4 HOAc, printed as Ac-Ile-Lys-Pqa-Arg-His-Tyr-Leu-Asn-Trp-Val-Thr-Arg-Gln-(NMe)-Arg-Try-NH2 * 4 HOAc) [reference compound]
- NPY1R [5]: inactive
- NPY5R [1]: inactive
- NPY4R [3]: inactive
- NPY2R [4]: 1.0 nM

The next lines start with the values.

- WB [6]: 2
- IHC [7]: 3
- EC50 tau(pS422) fragment SEQ ID NO: 03 [8]: 4.4 ng/ml
- EC50 S422A tau mutant S422A SEQ ID NO: 01 [9]: 0.0215 µg/mL
- EC50 tau peptide residues 416 to 430 of SEQ ID NO: 01 [10]: 0.634 µg/mL
- EC50 full length tau(pS422) SEQ ID NO: 02 [11]: 2.9 ng/ml
- EC50 tau(pS422) aggregates [12]: 9.4 ng/ml
- t/2diss 25° C. ([13]; 25 °C): 26 min
- Kd ([13]; 25 °C, read-out: KD 25° C.): 18 nM
- t/2diss 37° C. ([13]; 37 °C): 9 min
- Kd ([13]; 37 °C, read-out: KD 37° C.): 32 nM
- MR ([13]; 25 °C): 0.5
- MR ([13]; 37 °C): 0.6
- BIAcore [13]: 2
B1: VH32/VL21: humanized anti-human tau(pS422) antibody; VH SEQ ID NO: 19, VL SEQ ID NO: 16 (antibody, V domains shown)
VH: EVQVLESGGGLVQPGGSLRLSCAVSGFSLSSNAINWVRQAPGKGLEWVGYIAVSGNTYYASWAKGRFTISRDNSKNTVYLQMNSLRAEDTAVYYCGKSNIWGQGTLVTVSS
VL: AQVMTQSPSSLSASVGDRVTITCRSSQSVRTNKLAWFQQKPGQPPKRLIYSASTLDFGVPSRFSGSGSGTEFTLTISSLQPEDFATYYCLGYFDSSADIVAFGGGTKVEIK
modifications: humanized sequence

- WB [6]: 1
- IHC [7]: 1
- EC50 tau(pS422) fragment SEQ ID NO: 03 [8]: 5.6 ng/ml
- EC50 S422A tau mutant S422A SEQ ID NO: 01 [9]: 0.0174 µg/mL
- EC50 tau peptide residues 416 to 430 of SEQ ID NO: 01 [10]: 0.048 µg/mL
- EC50 full length tau(pS422) SEQ ID NO: 02 [11]: 3.5 ng/ml
- EC50 tau(pS422) aggregates [12]: 8.3 ng/ml
- t/2diss 25° C. ([13]; 25 °C): 29 min
- Kd ([13]; 25 °C, read-out: KD 25° C.): 14 nM
- t/2diss 37° C. ([13]; 37 °C): 8 min
- Kd ([13]; 37 °C, read-out: KD 37° C.): 31 nM
- MR ([13]; 25 °C): 0.5
- MR ([13]; 37 °C): 0.6
- BIAcore [13]: 1
B2: VH32/VL22: humanized anti-human tau(pS422) antibody; VH SEQ ID NO: 19, VL SEQ ID NO: 17 (antibody, V domains shown)
VH: B1 VH
VL: B1 VL with K33R, F57Y
modifications: humanized sequence
